In patent US20210355206A1 (Novartis, published 2021):
Numbering of substitutions follows the chain as printed.

T1: Rabbit Epo (rabbit, UniProt Q9GKA2 29-195, limits assumed)
T1 sequence: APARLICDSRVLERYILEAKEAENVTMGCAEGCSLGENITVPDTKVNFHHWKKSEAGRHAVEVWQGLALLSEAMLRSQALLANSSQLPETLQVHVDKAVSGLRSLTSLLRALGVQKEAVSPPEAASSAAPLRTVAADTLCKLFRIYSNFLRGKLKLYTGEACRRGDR

T2: Mouse Epo (mouse, UniProt P07321 27-192)
T2 sequence: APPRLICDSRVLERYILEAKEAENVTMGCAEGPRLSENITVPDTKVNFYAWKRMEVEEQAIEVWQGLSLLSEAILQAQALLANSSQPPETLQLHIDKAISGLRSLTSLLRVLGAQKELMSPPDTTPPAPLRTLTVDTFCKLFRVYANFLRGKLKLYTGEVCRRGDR

T3: Rat Epo (rat, UniProt P29676 27-192)
T3 sequence: T2 sequence with E55K, I61V, L81Q, T90S, T124A, P126Q, P127A, V135A, A146S, V160A

B1: NVS2 (Fab, V domains shown)
VH: EVQLVQSGAEVKKPGESLKISCKGSGYSFTSYWIGWVRQMPGKGLEWMGWIDPYRSEIRYSPSFQGQVTISADKSISTAYLQWSSLKASDTAMYYCARVSSEPFDSWGQGTLVTVSS
VL: SYVLTQPPSVSVAPGKTARITCSGDKLGDHYAYWYQQKPGQAPVLVIYDDSKRPSGIPERFSGSNSGNTATLTISRVEAGDEADYYCATWTFEGDYVFGGGTKLTVLG
notes: Human FabCys format; also called Fab NVS2; anti-EPO Fab
B2: NVS3 (Fab, V domains shown)
VH: QVQLQQSGPGLVKPSQTLSLTCAISGDSVSSNTAAWNWIRQSPSRGLEWLGVIYYRSKWYNDYAVSVKSRITINPDTSKNQFSLQLNSVTPEDTAVYYCARSVPGGDPGLEHAFAYWGRGTLVTVSS
VL: SYVLTQPPSVSVAPGKTARITCSGDNLGTYYVEWYQQKPGQAPVLVIYDDSDRPSGIPERFSGSNSGNTATLTISRVEAGDEADYYCASFASWSDSVFGGGTKLTVLG
notes: Human FabCys format; also called Fab NVS3; derived from initial antibody 11380
B3: NVS1 (Fab, V domains shown)
VH: QVQLVQSGAEVKKPGSSVKVSCKASGGTFRSYAISWVRQAPGQGLEWMGGIDPISGFADYAQKFQGRVTITADESTSTAYMELSSLRSEDTAVYYCARELYYPGTWMAVMAYWGRGTLVTVSS
VL: SYVLTQPPSVSVAPGKTARITCSGDNIPEYYVHWYQQKPGQAPVLVIYRDNERPSGIPERFSGSNSGNTATLTISRVEAGDEADYYCQVFDESSWHWVFGGGTKLTVLG
notes: Human FabCys format (VH-CH1 ending EPKSC, lambda light chain); also called Fab NVS1; derived from initial antibody 11319
B4: NVS4 (Fab, V domains shown)
VH: QVQLVQSGAEVKKPGASVKVSCKASGYTFTSYYMSWVRQAPGQGLEWMGWINPLKGNTNYAQKFQGRVTMTRDTSISTAYMELSRLRSEDTAVYYCAREGMYFDIWGQGTLVTVSS
VL: SYELTQPLSVSVALGQTARITCSGDSIGDKYVYWYQQKPGQAPVLVIYDTNKRPSGIPERFSGSNSGNTATLTISRAQAGDEADYYCQSWDLDFNTYVFGGGTKLTVLG
notes: Human FabCys format; also called Fab NVS4; derived from initial antibody 11317

Legend:
Rabbit Epo [1] = target: T1, Rabbit Epo; assay: SPR (Biacore T200), Fab captured by anti-human Fab, Epo as analyte, 25 C
Protocol: (§1) Three flow cells were utilized for the method run. […] Both capture and binding steps were carried out on flow cells 2-4.
(§2) The resulting signals were adjusted by double referencing, thus subtracting the refraction index values from the reference flow cell and the binding step with no analyte. Data was collected at 10 Hz and analyzed using the Biacore® T100 Evaluation Software Version 1.1 (GE Healthcare). This program uses a global fitting analysis method for the determination of rate and affinity constants for each interaction.

Mouse Epo [2] = target: T2, Mouse Epo; assay: as above
Protocol: as §1, §2

Rat Epo [3] = target: T3, Rat Epo; assay: as above
Protocol: as §1, §2

Rabbit Epo [4] = target: T1, Rabbit Epo; assay: solution equilibrium titration (SET), MSD ECL read-out, Fab with Epo titration
Protocol: (§3) In SET, a constant amount of antibody is incubated with different concentrations of antigen until equilibrium is reached. The concentration of free antibody in the equilibrated solution is determined by applying the solution on an antigen coated MSD™ plate (Meso Scale Discovery™) followed by incubation with an ECL-labeled secondary antibody and measurement of signal intensity. […] If a sufficient number of antigen concentrations in a matching range are available, the titration curve allows for a reasonable determination of the affinity, using the appropriate fit model.
(§4) Streptavidin-coated standard MSD plates (Meso-Scale Discovery, 384-well: MSD cat #L11 SA) were blocked with 25 μl incubation buffer at RT for 1 hr. […] Plates were washed 3× in TBST buffer. […] Plates were washed 3× in TBST buffer. 25 μl detection antibody was added (Anti-Human (Goat) Sulfo-TAG, 1:1000 in incubation buffer, MSD cat #R32AJ-1), and incubated at RT for 60 min. Plates were washed 3× in wash buffer, and 50 μl of 1× MSD Read buffer T was added (with surfactant, MSD cat #R92TC-1). Plates were read on a MSD Spector Imager 6000.

Mouse Epo [5] = target: T2, Mouse Epo; assay: as above
Protocol: as §3, §4

Rat Epo [6] = target: T3, Rat Epo; assay: as above
Protocol: as §3, §4

Mouse Epo [7] = target: T2, Mouse Epo; assay: SET; mouse Epo
Protocol: as §3, §4

Rat Epo [8] = target: T3, Rat Epo; assay: SET; rat Epo
Protocol: as §3, §4

Rabbit Epo [9] = target: T1, Rabbit Epo; assay: SPR (Biacore T200), Fab captured by anti-human Fab, Epo as analyte, 25 C; single datapoint
Protocol: as §1, §2

Mouse Epo [10] = target: T2, Mouse Epo; assay: as above
Protocol: as §1, §2

Rat Epo [11] = target: T3, Rat Epo; assay: as above
Protocol: as §1, §2

Mouse Epo [12] = target: T2, Mouse Epo; assay: solution equilibrium titration (SET), MSD ECL read-out, Fab with Epo titration; single datapoint
Protocol: as §3, §4

Rat Epo [13] = target: T3, Rat Epo; assay: as above
Protocol: as §3, §4

Mouse Epo [14] = target: T2, Mouse Epo; assay: SET
Protocol: as §3, §4

Rat Epo [15] = target: T3, Rat Epo; assay: SET
Protocol: as §3, §4

| Binder | Kd (Rabbit Epo [1]) [nM] | Kd (Mouse Epo [2]) [nM] | Kd (Rat Epo [3]) [nM] | Kd (Rabbit Epo [4]) [nM] | Kd (Mouse Epo [5]) [nM] | Kd (Rat Epo [6]) [nM] | Kd (Mouse Epo [7]) [nM] | Kd (Rat Epo [8]) [nM] | Kd (Rabbit Epo [9]) [nM] | Kd (Mouse Epo [10]) [nM] | Kd (Rat Epo [11]) [nM] | Kd (Mouse Epo [12]) [nM] | Kd (Rat Epo [13]) [nM] | Kd (Mouse Epo [14]) [nM] | Kd (Rat Epo [15]) [nM] |
| --- | --- | --- | --- | --- | --- | --- | --- | --- | --- | --- | --- | --- | --- | --- | --- |
| B1 | 5.16 | 0.0449 | 0.0566 | 3.86 | 0.037 | 0.0127 | < 0.05 | < 0.02 | – | – | – | – | – | – | – |
| B2 | 0.674 | 0.001 | 0.038 | 0.0399 | 0.0025 | 0.0012 | – | – | – | – | – | – | – | – | – |
| B3 | – | – | – | – | – | – | – | – | 0.661 | 0.022 | 0.041 | 0.0161 | 0.0054 | – | – |
| B4 | – | 0.0305 | 0.0344 | 28.7 | 0.0078 | 0.0127 | – | – | – | – | – | – | – | < 0.01 | < 0.01 |
